The sequences below were run on MS2 coat protein (assay: apparent KD of MS2 coat protein, switch OFF state (with FMN for OFF switches, without FMN for ON switches); designed switch direction (-1 OFF switch, 1 ON switch): 1; higher = weaker reporter binding). Conditions: FMN input: 0 or 200 uM; Eterna round: R93 (includes R88 designs).
How it was run: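 Designed RNA switches were transcribed on-chip from Illumina sequencing clusters and titrated with SNAP-549-labelled MS2 coat protein in twofold steps from 0.7 or 1.5 nM up to 3 µM. Each step lasted 0.8–1.5 h at first and 10–20 min by the end, in 100 mM Tris-HCl pH 7.5, 80 mM KCl and 4 mM MgCl2, without or with constant ligand. Apparent KD is the median, for each design, of fits to normalised cluster binding curves.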

Sequence | apparent KD of MS2 coat protein
CGGAGACAUGAGGAUCACCCAUGUGAGAAGAGGCGAGGAUAUCGAAAGAAAGAAGAGAAACGAGAAGGCGCGAGUA [salish99-SS1-066] | 31.9 nM
AAAUAAAGGACUGAGGAUAUACCACAUGAAACAUGAGGAUCACCCAUGUAAUAAUACAAAGGGUGGUAGAAGGUAGUCCACAAACA [so let's mod Hyphema] | 26.8 nM
AUAAAAGAAGCGAAGGAUAUCCAAAACUCAACAUGAGGAUCACCCAUGUAAAGAAAGAAAAAAUGGGAGAAGGUCGCAAAGAAUA [73%, More Fisker Same State 2, D3, 10] | 26.7 nM
AGAAAUAAAAGCGAGGAUAUCCAAAAGAAAACAUGAGGAUCACCCAUGUAAAAGAAAAUAAAAUGGGAGAAGGCGCAAAAUAAAG | 27.3 nM
AAUAUACAUGAGGAUCACCCAUGUUAGGUGGGACUAGGAUAUCAAAAUAAAUAAAGAACAUGAGAAGGAGUAUCAA [JR_SS001_Sub401] | 152 nM
GCAAAACAUGAGGAUCACCCAUGUCAACAAAAUCAAGGAUAUGAGCCAGCAAUGCCGGCAUCAGAAGGUGAACCUU [Enqule] | 68.5 nM
CUGGACAUAGUAUAGGAUAUAUGAAUAAUUACAUGAGGAUCACCCAUGUCCAUUUAUAUGGGAACAUAGAAGGGUGGUAGUUAAG [Mat - Same state - Malcolm Mod - D142] | 97.6 nM
GAAAAACAUGAGGAUCACCCAUGUGUAAAUAUGGAAGGAUAUACAAAGACGUAAGUCAAAGUAGAAGGUCUAAAAG [Mat - Same State 1 - Eli mod - D17] | 23.5 nM
AACAUACAUGAGGAUCACCCAUGUUCCGGCAGGUCAGGAUAUUCAUCGAAAGUGUUAUAAGAAGAAGGGACAUAAA [JR_SS001_Sub011] | 48.9 nM
AGAAAUAAACCGAAGGAUAUCUAAACCUAAACAUGAGGAUCACCCAUGUAAAAGAAAAUAAAAUGGGAGAAGGUCGGAAAUAAGA [Designing denovo 12] | 29.9 nM
AGAAGACAUGAGGAUCACCCAUGUGGGAAUAUGGGAGGAUAUACAAAGACGAGAGUCAGAGUAGAAGGCCUAGGAU [salish99-SS1-092] | 118 nM
AUAAAACAUGAGGAUCACCCAUGUAGAAACAUGGGAGGAUAUACAAAGACGAAAGUCAAAGUAGAAGGCCUAAAAG [Meechl MS2 SS1 2] | 67.3 nM
GAUAAACAUGAGGAUCACCCAUGUAGAAAUAUGGGAGGAUAUACGAAGACGAAAGUCAAAGUAGAAGGCCUAAAAG [Mat - Same State 1 - Eli mod - D114] | 52.6 nM
UGAAGACAUGAGGAUCACCCAUGUGGGAUUAUGGGAGGAUAUACAAAGACGAGAGUCAGAGUAGAAGGCCUAGGAU [salish99-ss1-117(!)] | 57.9 nM
AAAACACAUGAGGAUCACCCAUGUAAAAACAUGAGAGGAUAUGCAUAGAAAAAAAACUAUGCAGAAGGCUCAUGUG [SS1 - 5] | 29.1 nM
AACAAUCUAUCUGAGGAUAUCAUGUAAAAAACAUGAGGAUCACCCAUGUGCAGGAAAACUGCAUAUGAGAAGGCAGAUAGAUUGA [SS2 :P - 600] | 192 nM
CAGAGACAUGAGGAUCACCCAUGUAGGAUUAUGGGAGGAUAUACAAAGACGAGAGUCAGAGUAGAAGGCCUAGGAA [salish99-ss1-141] | 57.6 nM
AGAAGACAUGAGGAUCACCCAUGUGGGAUUAUGGGAGGAUAUACAAAGACGAGAGUCAGAGUAGAAGGCCUAGGAG [salish99-ss1-114(!)] | 66.4 nM
AACAAUCUAUCUGAGGAUAUAUGUCGAAAGACAUGAGGAUCACCCAUGUGAAAACAUGAAAAAUAAUAGAAGGCAGAUAGAUUGA [SS2: 1141] | 413 nM
GAAAAACAUGAGGAUCACCCAUGUGUAAAUAUGGGAGGAUAUACAAAGACGAAAGUCAAAGUAGAAGGCCUAAAAG [Mat - Same State 1 - Eli mod - D5] | 190 nM
AGGAAACAUGAGGAUCACCCAUGUAAAAAUAUGGGAGGAUAUACGAAGACAAAAAAAAAAGUAGAAGGCCUAAAAG [Garnet 12] | 266 nM
GAAAAACAUGAGGAUCACCCAUGUAGAAAUAUGGGAGGAUAUACAAAGACGAAAGUCAAAGUAGAAGGCCUGAAAG [77%, Mat - Mod of Eli, 1] | 136 nM

Sequence | apparent KD of MS2 coat protein
AAUAAACAUGAGGAUCACCCAUGUAAUAAUAUGGGAGGAUAUACUAAAAUAAAAUAAAAUGUAGAAGGCCUAAUAA [LROPPY Same State 1 - v05_deltaG=1.05 break up the As] | 159 nM
GAAAAACAUGAGGAUCACCCAUGUAAAAAUAUGGGAGGAUAUUCAAAGACGAAAGGGAAAGAAGAAGGCCUAAAAG [Garnet 4] | 1300 nM
AAAUGACAUGAGGAUCACCCAUGUCCACCAAACGGAGGAUAUUGGGCGGAAAAACGUUGUUAAGAAGGCCGAAAAA [SS1-1.0] | 73.7 nM
AAGAAAGUUUACGAGGAUAUGUUCCGCAGAACAUGAGGAUCACCCAUGUGAACAAGAAAGGCGACGCAGAAGGCGUGAGCUAUGA [Anesdien] | 106 nM
UAAAAACAUGAGGAUCACCCAUGUGAGAACAUGGGAGGAUAUACGAAGACGAAAGUCGAAGUAGAAGGCCUAAAAU [Mat - Same State 1 - Mod - D172] | 39.3 nM
AAAAAACAUGAGGAUCACCCAUGUAAAAAAAACACAGGAUAUCCCUUUUUUAAAUGAAAAGGAGAAGGGUGAAAAA [Nob's Hobby 9 - Jieux - Same State 1] | 24 nM
AAAAAACAUGAGGAUCACCCAUGUAGAAACAUGGGAGGAUAUACAAAGACGAAAGUCAAAGUAGAAGGCCUAAAAA [Mat - Same State 1 - Mod - D157] | 33.5 nM
AGGAAACAUGAGGAUCACCCAUGUAAAAGGUGGUUAGGAUAUGCGAAAAGAAAAAGAAAAGCAGAAGGGACAAGAA [Inspired by JR's SameStare1_sub2] | 415 nM
AAAGUGCCGACGAAGGAUAUAGCGGGUGAGACAUGAGGAUCACCCAUGUAUGCAGAACUCAUCCUCUAGAAGGUUGAGACGGCUA [Bionlateat] | 138 nM
AAAAGACAUGAGGAUCACCCAUGUAAAAACUUGAGAGGAUAUGCUUGGAAAACAUGCUAUGCAGAAGGCUCUAGUC [SS1 - 15] | 26.3 nM
AAGAAACAUGAGGAUCACCCAUGUAAGAUAAACACAGGAUAUGCGAAAGAAAUAAAGAAAGCAGAAGGGUGAAGAA [Mat - Same State 1 - Tesla mod - D147] | 26.8 nM
AUAAAAUAAAAGGAGGAUAUCCAUAAUAAAACAUGAGGAUCACCCAUGUAAAAAAGAAGAAAAUGGGAGAAGGCCUAAAAUAAAU [SS2 M 27] | 23.6 nM
AGAAAUAAAAGACAGGAUAUCCAAACUCAAACAUGAGGAUCACCCAUGUAAAAGAAAAUAAAGUGGGAGAAGGGUCAAAAUAAGA [Jieux modified + C segment V4] | 33.1 nM
UUACAGCACAGGUAGGAUAUGUAGGGUGGUACAUGAGGAUCACCCAUGUAUCCACCCUUCGAAAGGCAGAAGGGCCUGUCGCUGC [Arsora] | 16.8 nM
UGGAAACAUGAGGAUCACCCAUGUAAAAGGUGGUCAGGAUAUGCGAAAAGAAAAAGAAAAGUAGAAGGGACAAGAA [Mod of Eli's Mod] | 67.8 nM
GGUACAUCUAGUUAGGAUAUCAGGUGUAAGACAUGAGGAUCACCCAUGUCCUAAGAACAGGUAACUGAGAAGGAACAGGGAGUCC [JR_SS002_Sub416] | 133 nM
UAAAAACAUGAGGAUCACCCAUGUGAGAACAUGGGAGGAUAUACAAAGACGAAAGUCAAAGUAGAAGGCCUAAAAU [Mat - Same State 1 - Mod - D170] | 15.9 nM
AAGAAACAUGAGGAUCACCCAUGUAGAAACAUGGGAGGAUAUACAAAGACGAAAGUCAAAGUAGAAGGCCUAAGAA [Mat - Same State 1 - Mod - D164] | 63.5 nM
AAUCCAAAUAGUUAGGAUAUGGGAAUUAAAACAUGAGGAUCACCCAUGUAAUUGAAACAAGUUAACCAGAAGGGACAGGGUGAAA [JR_SS002_Sub209] | 46.1 nM
GAAGACAUAGUUCAGGAUAUAGGAAUAGUCACAUGAGGAUCACCCAUGUGCAUUUAUAUGCGCGCUUAGAAGGGAGGUAGAUAAU [Mat - Same state - Malcolm Mod - D119] | 21.2 nM
AUAAAAUAAACUGAGGAUAUCUAUAAUAAAACAUGAGGAUCACCCAUGUUUAAACAAAGAUCAUGGGAGAAGGCAGAAAAUAAAU [SS2 M 38] | 36.6 nM

Reference: the supplement of paper PMC9170038
